{"source": "patent US20110318377A1", "target": "Tat/FLAG (wild type HIV-1 Tat with FLAG tag, expressed in cells) (HIV-1)", "experiment": "cell-based or functional assay", "data": [{"substance": "endogenous Set9 (in Jurkat A2, HEK293 and HeLa cells) (from UniProt Q8WTS6 1-366)", "values": [{"measurement": "decrease in Tat transactivation of the HIV LTR (luciferase) in HeLa cells after Set9 siRNA", "value": 50, "unit": "percent"}]}]}
